Drawing on PMC8685454, this text covers Kd for one substance.

pKd: −log10 of the molar value.

Assay [1] deals with plant produced deglycosylated Receptor Binding Domain of Spike protein of SARS-CoV-2 (SARS-CoV-2) (UniProt P0DTC2). Description: ELISA. (In an ELISA, binding on a coated surface is turned into a signal by an enzyme label.)
For assay [2], the target named is commercial Spike protein, active Recombinant 2019-nCoV Spike Protein, RBD, His Tag (SARS-CoV-2) (UniProt P0DTC2). Description: ELISA.

On to “plant produced Endo H in vivo deglycosylated soluble (truncated) human ACE2 (receptor)”, for which the pKd in assay [1] was 8.89; in assay [2] it was 8.33.

As a reminder, the pKd is the Kd on a negative log10 scale, so that one unit is a factor of ten.
